Measured values reported in the supplement of paper PMC5998384.

Legend:
HeLa Kyoto [1] = assay: thermal stability score vs G1/S (z-score of summed log2 fold changes over temperatures); higher = more thermally stable than in G1/S
HeLa Kyoto [2] = assay: solubility change mitosis vs G1/S (difference of NP-40 vs SDS log2 ratios) (log2 ratio difference); higher = more soluble in mitosis
HeLa Kyoto [3] = assay: solubility in G1/S (NP-40 vs SDS abundance) (log2 ratio); higher = more soluble; conditions: cell cycle stage: G1/S
HeLa Kyoto [4] = assay: melting temperature (median over replicates), in situ; higher = more thermally stable
[5] = cell cycle stage: early G1 (4.5 h after nocodazole release)
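Throughout, for melting temperature (median over replicates), in situ: HeLa Kyoto cells synchronized by double thymidine or nocodazole block, proteins quantified by TMT10plex mass spectrometry, three independent biological replicates.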
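Throughout, for solubility change mitosis vs G1/S (difference of NP-40 vs SDS log2 ratios): synchronized HeLa Kyoto cells (double thymidine block for G1/S, nocodazole release for mitosis), protein amounts in NP-40 versus SDS lysates quantified by mass spectrometry, three biological replicates.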
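Throughout, for solubility in G1/S (NP-40 vs SDS abundance): HeLa Kyoto cells arrested at G1/S by double thymidine block, proteins quantified by TMT10plex mass spectrometry in mild NP-40 versus SDS extracts, three biological replicates.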
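Throughout, for thermal stability score vs G1/S (z-score of summed log2 fold changes over temperatures): synchronized HeLa Kyoto cells, proteins quantified by TMT10plex mass spectrometry, three biological replicates, mitosis taken 0.5 h after nocodazole release, G1/S directly after double thymidine block.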

Row | Sequence | thermal stability score (HeLa Kyoto [1]; [5]) | thermal stability score (HeLa Kyoto [1]; cell cycle stage: mitosis) | solubility change mitosis (log2) (HeLa Kyoto [2]) | solubility in G1/S (log2) (HeLa Kyoto [3]) | melting temperature (HeLa Kyoto [4]; cell cycle stage: G1/S) | melting temperature (HeLa Kyoto [4]; cell cycle stage: mitosis)
1 | MWLAAAAPSLARRLLFLGPPPPPLLLLVFSRSSRRRLHSLGLAAMPEKRPFERLPADVSPINYSLCLKPDLLDFTFEGKLEAAAQVRQATNQIVMNCADIDIITASYAPEGDEEIHATGFNYQNEDEKVTLSFPSTLQTGTGTLKIDFVGELNDKMKGFYRSKYTTPSGEVRYAAVTQFEATDARRAFPCWDEPAIKATFDISLVVPKDRVALSNMNVIDRKPYPDDENLVEVKFARTPVMSTYLVAFVVGEYDFVETRSKDGVCVRVYTPVGKAEQGKFALEVAAKTLPFYKDYFNVPYPLPKIDLIAIADFAAGAMENWGLVTYRETALLIDPKNSCSSSRQWVALVVGHELAHQWFGNLVTMEWWTHLWLNEGFASWIEYLCVDHCFPEYDIWTQFVSADYTRAQELDALDNSHPIEVSVGHPSEVDEIFDAISYSKGASVIRMLHDYIGDKDFKKGMNMYLTKFQQKNAATEDLWESLENASGKPIAAVMNTWTKQMGFPLIYVEAEQVEDDRLLRLSQKKFCAGGSYVGEDCPQWMVPITISTSEDPNQAKLKILMDKPEMNVVLKNVKPDQWVKLNLGTVGFYRTQYSSAMLESLLPGIRDLSLPPVDRLGLQNDLFSLARAGIISTVEVLKVMEAFVNEPNYTVWSDLSCNLGILSTLLSHTDFYEEIQEFVKDVFSPIGERLGWDPKPGEGHLDALLRGLVLGKLGKAGHKATLEEARRRFKDHVEGKQILSADLRSPVYLTVLKHGDGTTLDIMLKLHKQADMQEEKNRIERVLGATLLPDLIQKVLTFALSEEVRPQDTVSVIGGVAGGSKHGRKAAWKFIKDNWEELYNRYQGGFLISRLIKLSVEGFAVDKMAGEVKAFFESHPAPSAERTIQQCCENILLNAAWLKRDAESIHQYLLQRKASPPTV [NPEPPS] | -0.503 | -1.51 | -0.148 | 0.0254 | 53.9 °C | 53.6 °C
2 | MWSGRSSFTSLVVGVFVVYVVHTCWVMYGIVYTRPCSGDANCIQPYLARRPKLQLSVYTTTRSHLGAENNIDLVLNVEDFDVESKFERTVNVSVPKKTRNNGTLYAYIFLHHAGVLPWHDGKQVHLVSPLTTYMVPKPEEINLLTGESDTQQIEAEKKPTSALDEPVSHWRPRLALNVMADNFVFDGSSLPADVHRYMKMIQLGKTVHYLPILFIDQLSNRVKDLMVINRSTTELPLTVSYDKVSLGRLRFWIHMQDAVYSLQQFGFSEKDADEVKGIFVDTNLYFLALTFFVAAFHLLFDFLAFKNDISFWKKKKSMIGMSTKAVLWRCFSTVVIFLFLLDEQTSLLVLVPAGVGAAIELWKVKKALKMTIFWRGLMPEFQFGTYSESERKTEEYDTQAMKYLSYLLYPLCVGGAVYSLLNIKYKSWYSWLINSFVNGVYAFGFLFMLPQLFVNYKLKSVAHLPWKAFTYKAFNTFIDDVFAFIITMPTSHRLACFRDDVVFLVYLYQRWLYPVDKRRVNEFGESYEEKATRAPHTD [CLPTM1L] | -1.1 | -1.25 | -0.226 | -0.0724 | 52.8 °C | 53.2 °C
3 | MWTFLGIATFTYFYKKFGDFITLANREVLLCVLVFLSLGLVLSYRCRHRNGGLLGRQQSGSQFALFSDILSGLPFIGFFWAKSPPESENKEQLEARRRRKGTNISETSLIGTAACTSTSSQNDPEVIIVGAGVLGSALAAVLSRDGRKVTVIERDLKEPDRIVGEFLQPGGYHVLKDLGLGDTVEGLDAQVVNGYMIHDQESKSEVQIPYPLSENNQVQSGRAFHHGRFIMSLRKAAMAEPNAKFIEGVVLQLLEEDDVVMGVQYKDKETGDIKELHAPLTVVADGLFSKFRKSLVSNKVSVSSHFVGFLMKNAPQFKANHAELILANPSPVLIYQISSSETRVLVDIRGEMPRNLREYMVEKIYPQIPDHLKEPFLEATDNSHLRSMPASFLPPSSVKKRGVLLLGDAYNMRHPLTGGGMTVAFKDIKLWRKLLKGIPDLYDDAAIFEAKKSFYWARKTSHSFVVNILAQALYELFSATDDSLHQLRKACFLYFKLGGECVAGPVGLLSVLSPNPLVLIGHFFAVAIYAVYFCFKSEPWITKPRALLSSGAVLYKACSVIFPLIYSEMKYMVH [SQLE] | -0.599 | -0.00194 | -0.0643 | -0.21 | 52.7 °C | 53.3 °C
4 | MYALFLLASLLGAALAGPVLGLKECTRGSAVWCQNVKTASDCGAVKHCLQTVWNKPTVKSLPCDICKDVVTAAGDMLKDNATEEEILVYLEKTCDWLPKPNMSASCKEIVDSYLPVILDIIKGEMSRPGEVCSALNLCESLQKHLAELNHQKQLESNKIPELDMTEVVAPFMANIPLLLYPQDGPRSKPQPKDNGDVCQDCIQMVTDIQTAVRTNSTFVQALVEHVKEECDRLGPGMADICKNYISQYSEIAIQMMMHMQPKEICALVGFCDEVKEMPMQTLVPAKVASKNVIPALELVEPIKKHEVPAKSDVYCEVCEFLVKEVTKLIDNNKTEKEILDAFDKMCSKLPKSLSEECQEVVDTYGSSILSILLEEVSPELVCSMLHLCSGTRLPALTVHVTQPKDGGFCEVCKKLVGYLDRNLEKNSTKQEILAALEKGCSFLPDPYQKQCDQFVAEYEPVLIEILVEVMDPSFVCLKIGACPSAHKPLLGTEKCIWGPSYWCQNTETAAQCNAVEHCKRHVWN [PSAP] | -1.22 | -0.0458 | 0.32 | 0.0145 | 58.6 °C | 56.3 °C
